Numbering of substitutions follows the chain as printed. Names may count otherwise.
B1: S167D-catalase (phospho-mimic mutant of human catalase) (enzyme, UniProt P04040 1-527, looked up)
chain: MADSRDPASDQMQHWKEQRAAQKADVLTTGAGNPVGDKLNVITVGPRGPLLVQDVVFTDEMAHFDRERIPERVVHAKGAGAFGYFEVTHDITKYSKAKVFEHIGKKTPIAVRFSTVAGESGSADTVRDPRGFAVKFYTEDGNWDLVGNNTPIFFIRDPILFPSFIHDQKRNPQTHLKDPDMVWDFWSLRPESLHQVSFLFSDRGIPDGHRHMNGYGSHTFKLVNANGEAVYCKFHYKTDQGIKNLSVEDAARLSQEDPDYGIRDLFNAIATGKYPSWTFYIQVMTFNQAETFPFNPFDLTKVWPHKDYPLIPVGKLVLNRNPVNYFAEVEQIAFDPSNMPPGIEASPDKMLQGRLFAYPDTHRHRLGPNYLHIPVNCPYRARVANYQRDGPMCMQDNQGGAPNYYPNSFGAPEQQPSALEHSIQYSGEVRRFNTANDDNVTQVRAFYVNVLNEEQRKRLCENIAGHLKDAQIFIQKKAVKNFTEVHPDYGSHIQALLDKYNAEKPKNAIHTFVQSGSHLAAREKANL
B2: recombinant human wildtype catalase incubated with PKCδ (phosphorylated at S167) (enzyme, UniProt P04040 1-527, looked up)
chain: B1 chain with D167S
modifications: phosphoserine at 167
B3: recombinant human wildtype catalase (enzyme, UniProt P04040 1-527, looked up)
chain: B1 chain with D167S

Legend:
SEC [1] = target: the molecule itself; assay: SEC
[2] = target: the molecule itself; assay: cell-based or functional assay
SEC [3] = target: the molecule itself; assay: SEC; remark: listed apart in the source

Protein | stoichiometry N (SEC [1]) | rate of H2O2 decomposition by the purified protein, against wildtype catalase [2] [fold] | Dimer (%) (SEC [3]) | Tetramer (%) (SEC [3])
B1 | 4 | 2 | 9.2 | 44.4
B2 | 4 | – | 6.23 | 51.8
B3 | 2 | – | 53 | 4.78

From paper PMC3945115 (Free radical biology & medicine, 2013)
